Measurements reported in patent US20100129369A1 (Eli Lilly, published 2010).

Legend:
[1] = molecular target: T1, human c-Met ECD-Fc-Flis (human); assay: HGF-blocking ELISA: HGF signal on coated c-Met ECD-Fc-Flis; Ab 0.48 ng/mL
T1 construct: c-Met ECD fused to Fc with flag- and His-tag at the C-terminus; also called human c-Met extracellular domain (ECD)-Fc-Flis fusion; human c-Met-Flis-Fc ECD
Procedure: (§1) Wells of 96-well EIA/RIA high binding plates (Costar, #2592) are coated with 100 μL of human c-Met ECD-Fc-Flis (SEQ ID NO:72) (2 μg/mL) in Dulbecco's phosphate buffered saline (DPBS) overnight at room temperature; washed four times with wash buffer (Tris-buffered saline, pH 8.0, with 0.05% (v/v) polysorbate 20 (TWEEN®-20) (TBS-T) (BioFX Labs, # WSHW-1000-01) in a plate washer; blocked by adding 300 μL of blocking buffer (TBS-T plus 1% (w/v) bovine serum albumin (BSA) (Jackson Immuno, #001-000-162); and incubating for 60 min. at 37° C. Blocking buffer is then removed from the wells and 50 μL of antibodies in blocking buffer at final concentrations as indicated in Table 7 are added into each well, respectively. […] The plates with c-Met antibodies are incubated for 90 min. at 37° C. […] The wells are then washed four times with TBS-T in a plate washer. […] The plates are incubated for 90 min. at room temperature. The wells are again washed four times with TBS-T in a plate washer. 100 μL of a 1:200 dilution of streptavidin-horseradish peroxidase (HRP) (R&D Systems, DY998) in blocking buffer are added to each well. The plates are incubated for 30 min. at room temperature. The wells are washed four times with TBS-T in a plate washer. 100 μL/well of substrate solution (BioFx, #TMBW-1000-01) are then added, and the plates are incubated for 10 min. at room temperature. To stop the reaction, 100 μL/well of stop solution (BioFx, # LSTP-1000-01) are added. The samples are read at a wavelength of 450-570 nm on a microplate reader (Spectra, MAX 190) and no background is subtracted.

[2] = molecular target: T2, human c-Met (human, UniProt P08581 25-1390); assay: cell-based or functional assay
T2 sequence (P08581 25-1390): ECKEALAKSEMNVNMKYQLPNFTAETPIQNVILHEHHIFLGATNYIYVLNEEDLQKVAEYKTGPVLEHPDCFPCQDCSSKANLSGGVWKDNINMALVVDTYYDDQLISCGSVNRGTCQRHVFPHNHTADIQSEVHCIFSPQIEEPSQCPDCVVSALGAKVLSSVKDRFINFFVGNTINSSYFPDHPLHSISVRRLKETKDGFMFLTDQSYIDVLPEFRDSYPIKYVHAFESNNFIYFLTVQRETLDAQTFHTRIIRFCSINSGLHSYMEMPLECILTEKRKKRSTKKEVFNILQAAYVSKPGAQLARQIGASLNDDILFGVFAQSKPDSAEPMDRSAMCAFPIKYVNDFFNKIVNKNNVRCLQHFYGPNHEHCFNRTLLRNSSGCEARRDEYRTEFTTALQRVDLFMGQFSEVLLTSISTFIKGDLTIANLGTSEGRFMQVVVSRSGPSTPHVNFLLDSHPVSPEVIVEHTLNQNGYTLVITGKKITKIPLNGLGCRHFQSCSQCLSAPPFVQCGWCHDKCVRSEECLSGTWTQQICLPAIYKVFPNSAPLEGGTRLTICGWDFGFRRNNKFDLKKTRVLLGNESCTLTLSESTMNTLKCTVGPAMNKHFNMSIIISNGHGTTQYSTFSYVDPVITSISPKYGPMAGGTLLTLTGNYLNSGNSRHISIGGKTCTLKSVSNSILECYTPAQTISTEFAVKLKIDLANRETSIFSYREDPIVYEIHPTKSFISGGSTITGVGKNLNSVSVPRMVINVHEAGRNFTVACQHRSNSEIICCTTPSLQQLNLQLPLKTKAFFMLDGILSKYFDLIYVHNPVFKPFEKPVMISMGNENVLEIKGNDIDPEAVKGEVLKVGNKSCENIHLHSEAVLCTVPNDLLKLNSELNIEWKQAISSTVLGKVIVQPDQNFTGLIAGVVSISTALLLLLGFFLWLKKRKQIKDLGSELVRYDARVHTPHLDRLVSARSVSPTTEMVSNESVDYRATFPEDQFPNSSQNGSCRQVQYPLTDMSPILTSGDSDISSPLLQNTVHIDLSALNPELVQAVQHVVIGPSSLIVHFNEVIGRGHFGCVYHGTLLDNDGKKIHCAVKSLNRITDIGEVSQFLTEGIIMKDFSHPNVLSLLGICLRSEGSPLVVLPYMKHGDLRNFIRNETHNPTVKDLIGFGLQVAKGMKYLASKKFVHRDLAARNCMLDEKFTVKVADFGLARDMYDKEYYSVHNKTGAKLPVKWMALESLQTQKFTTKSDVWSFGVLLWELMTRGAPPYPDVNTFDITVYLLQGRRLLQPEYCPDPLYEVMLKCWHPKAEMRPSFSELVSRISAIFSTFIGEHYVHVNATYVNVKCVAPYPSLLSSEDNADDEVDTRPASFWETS

[3] = molecular target: T1, human c-Met ECD-Fc-Flis; assay: HGF-blocking ELISA: HGF signal on coated c-Met ECD-Fc-Flis; Ab 1953.13 ng/mL
Procedure: as §1

[4] = molecular target: T2, human c-Met; assay: cell-based or functional assay; remark: listed apart in the source
[5] = molecular target: T1, human c-Met ECD-Fc-Flis; assay: HGF-blocking ELISA: HGF signal on coated c-Met ECD-Fc-Flis; Ab 31250.00 ng/mL
Procedure: as §1

[6] = molecular target: T1, human c-Met ECD-Fc-Flis; assay: HGF-blocking ELISA: HGF signal on coated c-Met ECD-Fc-Flis; Ab 488.28 ng/mL
Procedure: as §1

[7] = molecular target: T1, human c-Met ECD-Fc-Flis; assay: HGF-blocking ELISA: HGF signal on coated c-Met ECD-Fc-Flis; Ab 7812.50 ng/mL
Procedure: as §1

[8] = molecular target: T1, human c-Met ECD-Fc-Flis; assay: HGF-blocking ELISA: HGF signal on coated c-Met ECD-Fc-Flis; Ab 0.00 ng/mL (HGF only)
Procedure: as §1

[9] = molecular target: T1, human c-Met ECD-Fc-Flis; assay: HGF-blocking ELISA: HGF signal on coated c-Met ECD-Fc-Flis; Ab 7.63 ng/mL
Procedure: as §1

[10] = molecular target: T2, human c-Met; assay: cell-based or functional assay; remark: listed apart in the source
[11] = molecular target: T1, human c-Met ECD-Fc-Flis; assay: HGF-blocking ELISA: HGF signal on coated c-Met ECD-Fc-Flis; Ab 125000.00 ng/mL
Procedure: as §1

[12] = molecular target: T1, human c-Met ECD-Fc-Flis; assay: HGF-blocking ELISA: HGF signal on coated c-Met ECD-Fc-Flis; Ab 1.91 ng/mL
Procedure: as §1

[13] = molecular target: T1, human c-Met ECD-Fc-Flis; assay: HGF-blocking ELISA: HGF signal on coated c-Met ECD-Fc-Flis; Ab 122.07 ng/mL
Procedure: as §1

[14] = molecular target: T1, human c-Met ECD-Fc-Flis; assay: HGF-blocking ELISA: HGF signal on coated c-Met ECD-Fc-Flis; Ab 30.52 ng/mL
Procedure: as §1

T1 sequence (chain, as listed by the source): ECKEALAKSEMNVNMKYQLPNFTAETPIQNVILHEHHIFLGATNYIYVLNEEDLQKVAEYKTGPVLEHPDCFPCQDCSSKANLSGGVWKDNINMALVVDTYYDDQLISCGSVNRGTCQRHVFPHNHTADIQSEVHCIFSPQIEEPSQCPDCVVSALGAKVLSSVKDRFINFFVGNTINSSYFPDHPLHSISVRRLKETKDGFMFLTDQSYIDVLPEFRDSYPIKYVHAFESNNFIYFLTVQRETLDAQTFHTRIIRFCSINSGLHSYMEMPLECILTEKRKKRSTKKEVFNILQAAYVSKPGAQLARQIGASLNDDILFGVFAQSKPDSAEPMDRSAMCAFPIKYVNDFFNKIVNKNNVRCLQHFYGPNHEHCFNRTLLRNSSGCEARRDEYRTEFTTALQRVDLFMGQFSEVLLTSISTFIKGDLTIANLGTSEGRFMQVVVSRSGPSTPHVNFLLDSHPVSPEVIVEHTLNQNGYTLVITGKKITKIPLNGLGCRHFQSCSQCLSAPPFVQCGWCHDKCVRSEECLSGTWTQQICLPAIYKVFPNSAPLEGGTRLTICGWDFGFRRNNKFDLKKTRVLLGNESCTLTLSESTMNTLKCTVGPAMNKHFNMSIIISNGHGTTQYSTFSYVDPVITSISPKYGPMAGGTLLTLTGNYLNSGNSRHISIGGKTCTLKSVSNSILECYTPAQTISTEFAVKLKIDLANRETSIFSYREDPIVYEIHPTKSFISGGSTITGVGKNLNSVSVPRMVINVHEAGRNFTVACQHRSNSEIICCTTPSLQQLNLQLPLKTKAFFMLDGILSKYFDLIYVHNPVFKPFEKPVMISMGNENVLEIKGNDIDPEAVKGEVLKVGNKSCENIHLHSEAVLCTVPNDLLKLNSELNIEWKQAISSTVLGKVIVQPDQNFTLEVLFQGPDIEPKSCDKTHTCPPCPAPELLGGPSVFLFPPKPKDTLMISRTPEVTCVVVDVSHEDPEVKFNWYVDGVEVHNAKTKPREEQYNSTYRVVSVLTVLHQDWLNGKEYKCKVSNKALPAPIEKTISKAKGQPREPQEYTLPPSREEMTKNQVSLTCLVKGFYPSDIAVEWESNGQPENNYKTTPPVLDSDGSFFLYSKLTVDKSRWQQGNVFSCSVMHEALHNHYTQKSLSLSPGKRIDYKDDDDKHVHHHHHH

Binder | AVG A450 nm [1] | AVG CPM, 3H-thymidine incorporation in MKN45 cells, Ab 0.0 ng/mL (no antibody) [2] | AVG CPM, 3H-thymidine incorporation in MKN45 cells, Ab 0.1 ng/mL [2] | AVG CPM, 3H-thymidine incorporation in MKN45 cells, Ab 0.4 ng/mL [2] | AVG CPM, 3H-thymidine incorporation in MKN45 cells, Ab 2.6 ng/mL [2] | AVG CPM, 3H-thymidine incorporation in MKN45 cells, Ab 15.4 ng/mL [2] | AVG CPM, 3H-thymidine incorporation in MKN45 cells, Ab 92.6 ng/mL [2] | AVG CPM, 3H-thymidine incorporation in MKN45 cells, Ab 555.6 ng/mL [2] | AVG CPM, 3H-thymidine incorporation in MKN45 cells, Ab 3333.3 ng/mL [2] | AVG CPM, 3H-thymidine incorporation in MKN45 cells, Ab 20000.0 ng/mL [2] | AVG A450 nm [3] | Mean Fluorescence (c-Met left on the surface of MKN45 cells, FACS), Ab 5.00 ug/mL [4] | AVG A450 nm [5] | AVG A450 nm [6] | AVG A450 nm [7] | AVG A450 nm [8] | AVG A450 nm [9] | % inhibition of HGF stimulated phospho-Met (ELISA, HCT116 cells), Ab 0.0032 µg/mL [10] | % inhibition of HGF stimulated phospho-Met (ELISA, HCT116 cells), Ab 0.016 µg/mL [10] | % inhibition of HGF stimulated phospho-Met (ELISA, HCT116 cells), Ab 0.08 µg/mL [10] | also measured
D11-S17Y (antibody, human IgG2, kappa, V domains shown, Human engineered IgG2 kappa c-Met antibody; also called D11-S17Y IgG2) VH: QVQLVQSGAEVKKPGSSVKVSCKASGYTFTSRYIHWVRQAPGQGLEWMGWIYPVTGDTYYNEKFKGRVTITADKSTSTAYMELSSLRSEDTAVYYCARGYGAFYYWGQGTLVTVSS VL: EIVLTQSPGTLSLSPGERATLSCSVSSSISSTNLHWYQQKPGQAPRLLIYGTSYLASGIPDRFSGSGSGTDFTLTISRLEPEDFAVYYCQQWSSYPYSFGQGTKLEIKR | 2.15 A450 nm | 44200 CPM | 44600 CPM | 45300 CPM | 49900 CPM | 39700 CPM | 21900 CPM | 20900 CPM | 21200 CPM | 19800 CPM | 1.23 A450 nm | 56.4 | 1.17 A450 nm | 1.29 A450 nm | 1.12 A450 nm | 2.43 A450 nm | 2.08 A450 nm | 9.48% | 2.53% | -3.24% | % inhibition of HGF stimulated phospho-Met (ELISA, HCT116 cells), Ab 0.4 µg/mL [10]: 15.9%; % inhibition of HGF stimulated phospho-Met (ELISA, HCT116 cells), Ab 2 µg/mL [10]: 31.4%; % inhibition of HGF stimulated phospho-Met (ELISA, HCT116 cells), Ab 10 µg/mL [10]: 16.7%; AVG A450 nm [11]: 1.35 A450 nm; AVG A450 nm [12]: 1.98 A450 nm; AVG A450 nm [13]: 1.69 A450 nm; AVG A450 nm [14]: 2.07 A450 nm
D11-C27G3 (antibody, human IgG2, kappa, V domains shown, Human engineered IgG2 kappa c-Met antibody; also called D11-27G3; D11-C27G3 IgG2) VH: QVQLVQSGAEVKKPGSSVKVSCKASGYTFTSRYIHWVRQAPGQGLEWMGWIYPVTGDTYYREPFKGRVTITADKSTSTAYMELSSLRSEDTAVYYCARGYGAFYYWGQGTLVTVSS VL: EIVLTQSPGTLSLSPGERATLSCSVSSSISSTNLHWYQQKPGQAPRLLIYGTSRLRSGIPDRFSGSGSGTDFTLTISRLEPEDFAVYYCQQWSSYPYSFGQGTKLEIKR | 2.37 A450 nm | 44200 CPM | 41500 CPM | 44000 CPM | 47000 CPM | 28700 CPM | 14600 CPM | 16000 CPM | 16900 CPM | 18400 CPM | 0.97 A450 nm | 51.1 | 0.94 A450 nm | 0.94 A450 nm | 0.91 A450 nm | 2.43 A450 nm | 2.27 A450 nm | 9.72% | 5.73% | 20.8% | % inhibition of HGF stimulated phospho-Met (ELISA, HCT116 cells), Ab 0.4 µg/mL [10]: 38.1%; % inhibition of HGF stimulated phospho-Met (ELISA, HCT116 cells), Ab 2 µg/mL [10]: 31.8%; % inhibition of HGF stimulated phospho-Met (ELISA, HCT116 cells), Ab 10 µg/mL [10]: 1.25%; AVG A450 nm [11]: 0.89 A450 nm; AVG A450 nm [12]: 2.31 A450 nm; AVG A450 nm [13]: 1.6 A450 nm; AVG A450 nm [14]: 2.38 A450 nm
D11-8B8 (antibody, human IgG2, kappa, V domains shown, Human engineered IgG2 kappa c-Met antibody; also called Mab D11-8B8; D11-8B8 IgG2) VH: QVQLVQSGAEVKKPGSSVKVSCKASGYTFTSRYIHWVRQAPGQGLEWMGWIYPVTGDTYYIEKFKGRVTITADKSTSTAYMELSSLRSEDTAVYYCARGYGAFFYWGQGTLVTVSS VL: EIVLTQSPGTLSLSPGERATLSCSVSSSISSTNLHWYQQKPGQAPRLLIYGTSYLASGIPDRFSGSGSGTDFTLTISRLEPEDFAVYYCQQWSSYPYSFGQGTKLEIKR | 2.51 A450 nm | 50400 CPM | 41600 CPM | 43300 CPM | 44700 CPM | 24400 CPM | 11100 CPM | 11900 CPM | 11400 CPM | 11200 CPM | 1.43 A450 nm | 44.7 | 1.31 A450 nm | 1.3 A450 nm | 1.24 A450 nm | 2.43 A450 nm | 2.41 A450 nm | -10.4% | -6.68% | 10.5% | % inhibition of HGF stimulated phospho-Met (ELISA, HCT116 cells), Ab 0.4 µg/mL [10]: 35%; % inhibition of HGF stimulated phospho-Met (ELISA, HCT116 cells), Ab 2 µg/mL [10]: 40.7%; % inhibition of HGF stimulated phospho-Met (ELISA, HCT116 cells), Ab 10 µg/mL [10]: 19.6%; AVG A450 nm [11]: 1.38 A450 nm; AVG A450 nm [12]: 2.48 A450 nm; AVG A450 nm [13]: 1.92 A450 nm; AVG A450 nm [14]: 2.32 A450 nm
